Data taken from patent publication US20230133118A1, “COMPOSITIONS AND METHODS FOR TREATING CANCER” (Adagene AG, priority 2020, published 2023).
Where “and” joins values, the source holds several entries; their conditions need not be identical. Equal values may be shown once. Read-outs that look alike come from different tables or passages of the source.

Details: for Any DLTs: first 2 cycles
Procedure: The phase 1a dose escalation study in US (ClinicalTrials.gov Identifier: NCT03707093) included accelerated titration (0.03, 0.1 and 0.3 mg/kg) and conventional dose escalation (1, 3, and 10 mg/kg). The phase 1a dose escalation study in China (ClinicalTrials.gov Identifier: NCT03802955) included accelerated titration (0.1 mg/kg) and conventional dose escalation (0.5, 1.5, 3, 5, and 10 mg/kg). […] Patients with advanced or metastatic solid tumors and/or non-Hodgkin lymphoma who were refractory or relapsed and exhausted all available therapies were enrolled and received treatment until disease progression, intolerable toxicity, withdrawal with consent, or for a maximum of 24 months.
Dose expansion studies were conducted for dose levels that were proven tolerable in Phase 1a and with evidence of clinical or biological activity. The dose levels studied in Phase 1 b were 3 mg/kg and 5 mg/kg.

ADG106: fully human agonistic anti-CD137 monoclonal IgG4 antibody; heavy chain SEQ ID NO: 10, light chain SEQ ID NO: 11
2 (67) n (%): Any Drug Related TEAEs (0.5 mg/kg N=3)
21%: TEAE blood present in urine (China update, 57 patients) | TEAE platelet count increase (China update, 57 patients) | TEAE pruritus (China update, 57 patients)
4 (57) n (%): Any Drug Related TEAEs (5 mg/kg N=7)
2 (40) n (%): Any Drug Related TEAEs (1.5 mg/kg N=5) | Any SAE (10 mg/kg N=5) | Any TEAEs Leading to Study Drug Discontinuation (10 mg/kg N=5) | Drug Related SAE (10 mg/kg N=5) | SAE leading to Drug discontinuation (10 mg/kg N=5)
32%: TEAE aspartate aminotransferase increase (China update, 57 patients)
1 (100) n (%): >=G3 adverse events (0.03 mg/kg N=1) | Any Drug Related TEAEs (0.03 mg/kg N=1) | Any TEAEs leading to Study Drug Dose Reduction or Interruption (0.03 mg/kg N=1) | >=G3 adverse events (0.3 mg/kg N=1) | Any Drug Related TEAEs (0.3 mg/kg N=1)
25%: TEAE constipation (China update, 57 patients) | TEAE rash (China update, 57 patients)
1 (20) n (%): Any SAE (1.5 mg/kg N=5)
1: DLT observed (China update Nov. 30, 2020, 18 dose escalation patients, Grade 4 neutrophil count decreased at 10 mg/kg)
30%: TEAE asthenia (China update, 57 patients) | TEAE hypoalbuminaemia (China update, 57 patients) | TEAE hyponatraemia (China update, 57 patients)
2 (29) n (%): Drug Related SAE (5 mg/kg N=7)
6 n (%): Any Drug Related TEAEs (3 mg/kg N=12)
23%: TEAE cough (China update, 57 patients) | TEAE hypochloraemia (China update, 57 patients)
1 (25) n (%): Any SAE (1 mg/kg N=4) | Any TEAEs Leading to Study Drug Discontinuation (1 mg/kg N=4) | Any TEAEs with Outcome of Death (1 mg/kg N=4)
4 (80) n (%): >=G3 adverse events (10 mg/kg N=5) | Any Drug Related TEAEs (10 mg/kg N=5)
3 n (%): Any SAE (3 mg/kg N=12)
4 (100) n (%): Any Drug Related TEAEs (1 mg/kg N=4)
3 (43) n (%): Any SAE (5 mg/kg N=7)
39%: TEAE proteinuria (China update, 57 patients)
0 n (%): Any SAE (0.03 mg/kg N=1) | Any TEAEs Leading to Study Drug Discontinuation (0.03 mg/kg N=1) | Any TEAEs with Outcome of Death (0.03 mg/kg N=1) | Drug Related SAE (0.03 mg/kg N=1) | SAE leading to Drug discontinuation (0.03 mg/kg N=1) | Any DLTs (0.03 mg/kg N=1) | >=G3 adverse events (0.1 mg/kg N=2) | Any SAE (0.1 mg/kg N=2) | Any TEAEs Leading to Study Drug Discontinuation (0.1 mg/kg N=2) | Any TEAEs leading to Study Drug Dose Reduction or Interruption (0.1 mg/kg N=2) | Any TEAEs with Outcome of Death (0.1 mg/kg N=2) | Drug Related SAE (0.1 mg/kg N=2) | SAE leading to Drug discontinuation (0.1 mg/kg N=2) | Any DLTs (0.1 mg/kg N=2) | Any SAE (0.3 mg/kg N=1) | Any TEAEs Leading to Study Drug Discontinuation (0.3 mg/kg N=1) | Any TEAEs leading to Study Drug Dose Reduction or Interruption (0.3 mg/kg N=1) | Any TEAEs with Outcome of Death (0.3 mg/kg N=1) | Drug Related SAE (0.3 mg/kg N=1) | SAE leading to Drug discontinuation (0.3 mg/kg N=1) | Any DLTs (0.3 mg/kg N=1) | >=G3 adverse events (0.5 mg/kg N=3) | Any SAE (0.5 mg/kg N=3) | Any TEAEs Leading to Study Drug Discontinuation (0.5 mg/kg N=3) | Any TEAEs leading to Study Drug Dose Reduction or Interruption (0.5 mg/kg N=3) | Any TEAEs with Outcome of Death (0.5 mg/kg N=3) | Drug Related SAE (0.5 mg/kg N=3) | SAE leading to Drug discontinuation (0.5 mg/kg N=3) | Any DLTs (0.5 mg/kg N=3) | Any TEAEs leading to Study Drug Dose Reduction or Interruption (1 mg/kg N=4) | Drug Related SAE (1 mg/kg N=4) | SAE leading to Drug discontinuation (1 mg/kg N=4) | Any DLTs (1 mg/kg N=4) | >=G3 adverse events (1.5 mg/kg N=5) | Any TEAEs Leading to Study Drug Discontinuation (1.5 mg/kg N=5) | Any TEAEs leading to Study Drug Dose Reduction or Interruption (1.5 mg/kg N=5) | Any TEAEs with Outcome of Death (1.5 mg/kg N=5) | Drug Related SAE (1.5 mg/kg N=5) | SAE leading to Drug discontinuation (1.5 mg/kg N=5) | Any DLTs (1.5 mg/kg N=5) | Any TEAEs leading to Study Drug Dose Reduction or Interruption (3 mg/kg N=12) | Drug Related SAE (3 mg/kg N=12) | SAE leading to Drug discontinuation (3 mg/kg N=12) | Any DLTs (3 mg/kg N=12) | Any TEAEs leading to Study Drug Dose Reduction or Interruption (5 mg/kg N=7) | Any TEAEs with Outcome of Death (5 mg/kg N=7) | Any TEAEs leading to Study Drug Dose Reduction or Interruption (10 mg/kg N=5) | Any TEAEs with Outcome of Death (10 mg/kg N=5)
4 n (%): >=G3 adverse events (3 mg/kg N=12)
2 (100) n (%): Any Drug Related TEAEs (0.1 mg/kg N=2)
1 n (%) and 1 (14) n (%): Any DLTs (5 mg/kg N=7)
35%: TEAE C-reactive protein increase (China update, 57 patients)
7: SAEs related to the study treatment (China update)
26%: TEAE white blood cell count decrease (China update, 57 patients)
3 (75) n (%): >=G3 adverse events (1 mg/kg N=4)
2 (39) n (%): >=G3 adverse events (5 mg/kg N=7)
1 n (%): Any TEAEs Leading to Study Drug Discontinuation (3 mg/kg N=12) | Any TEAEs with Outcome of Death (3 mg/kg N=12)
1 (14) n (%): Any TEAEs Leading to Study Drug Discontinuation (5 mg/kg N=7) | SAE leading to Drug discontinuation (5 mg/kg N=7)
46%: TEAE anemia (China update, 57 patients)
